In brackets after ≈: the same amount, converted by molar mass.
Experiments:
[1] = cited from earlier work
[2] = system: CC[C@H](C)C(=O)C(=O)O; assay: measurement of LeuA activity (DTNB); format: biochemical, E. coli; details: 30° C., pH 8.0
Excerpt: (§1) Protein Expression and Purification. Both gene fragments encoding wild type and F381L/V461A KIVD were amplified from plasmid pZE_LeuABCDKA6 using primers hiskivd_tevfwd and hiskivd_bamrev. After digestion with BamHI, the gene fragments were inserted into expression plasmid pQE9 (Qiagen) to yield pQE_hiskivd_wt and pQE_hiskivd_FL. The ADH6 gene fragment was amplified from yeast genomic DNA using primers hisadh_tevfwd and hisadh_bamrev, digested with BamHI and inserted into pQE9 to generate pQE_hisadh6. Similarly, genes encoding G462D and G462D/S139G LeuA were amplified from plasmid pZE_LeuABCDKA6 using primers hisleua_tevfwd and hisleua_bamrev. After digestion with BamHI, the PCR products were ligated into pQE9 to create pQE_hisleua_GD and pQE_hisleua_GS. The resulting expression plasmids pQE_hiskivd_wt, pQE_hiskivd_FL, pQE_hisadh6, pQE_hisleua_GD and pQE_hisleua_GS were transformed into E. coli strain BL21(DE3) harboring pREP4 (Qiagen). Cells were inoculated from an overnight pre-culture at 1/100 dilution and grown in 200 ml 2XYT rich medium containing 50 mg/L ampicillin and 25 mg/L kanamycin. At an OD600 of 0.6, recombinant proteins were expressed by induction of the cell cultures with 0.1 mM IPTG, followed by incubation at 30° C. overnight. Cell pellets were lysed by sonication in a buffer containing 250 mM NaCl, 2 mM DTT, 5 mM imidazole, and 50 mM Tris pH 9.0. By applying a stepwise gradient of imidazole (up to 250 mM), enzymes were purified from crude cell lysates through Ni-NTA column chromatography. The fractions of highest purity were pooled and buffer-exchanged using Amicon Ultra centrifugal filters (Millipore). Storage buffer 1 ([…], pH 8.0, 1 mM MgSO4, and 20% glycerol) was used for LeuA and ADH6, and storage buffer 2 ([…], pH 8.0, 1 mM MgSO4, 0.2 mM ThDP, and 20% glycerol) was used for KIVD. The concentrated protein solutions were aliquoted (100 μl) into PCR tubes and flash frozen at −80° C. for long term storage.
(§2) Measurement of LeuA activity. The assay mixture contained 100 mM KCl, 2 mM MgCl2, 1 mM acetyl-CoA, and 100 mM Tris pH 8.0 with a total volume of 100 μl. 100 nM G462D or G462D/S139G LeuA was reacted with 2-ketoisovalerate in a concentration range from 25 μM to 1 mM for 10 minutes at 30° C. While 4 μM G462D or 1.5 μM G462D/S139G LeuA was reacted with (S)-2-keto-3-methylvalerate in a concentration range from 50 μM to 2 mM for 30 minutes at 30° C. The reactions were stopped by adding 0.3 ml of ethanol. Then 0.2 ml of a fresh 1 mM solution of 5,5′-Dithio-Bis (2 Nitrobenzoic Acid) in 100 mM Tris buffer pH 8.0 was added, and the yellow color product was measured at 412 nm. The values obtained were corrected for unspecific hydrolysis by subtracting the absorbance of controlled samples without addition of 2-keto acids. A molar extinction coefficient of 13,600 M^−1 cm^−1 was used in the final calculations.

[3] = system: CC(C)C(=O)C(=O)O; assay: measurement of LeuA activity (DTNB); format: biochemical, E. coli; details: 30° C., pH 8.0
Excerpt: as §1, §2

[4] = biological target: wild type KIVD (Lactococcus lactis, UniProt A0A0B8QZ66); assay: coupled enzymatic assay of KIVD decarboxylation activity; format: biochemical; details: for kcat: substrate of Wild type KIVD, 30° C., pH 6.8
Excerpt: as §1
(§3) Enzymatic Assay of KIVD. Substrate 2-ketoisovalerate (KIV) was purchased from Sigma-Aldrich, and (S)-2-keto-4-methylhexanoate (KHV) was custom synthesized by AsisChem. Inc. Protein concentration was determined by measuring UV absorbance at 280 nm. The decarboxylation activity of KIVD was measured at 30° C. using a coupled enzymatic assay method. Excess ADH6 was used to reduce aldehyde into alcohol, and concomitantly, cofactor NADPH was oxidized to NADP+. The assay mixture contained 0.2 mM NADPH, 0.1 μM ADH6 and 0.1-20 mM 2-keto acids in assay buffer (50 mM potassium phosphate buffer, pH 6.8, 1 mM MgSO4, 0.5 mM ThDP) with a total volume of 0.2 mL. The reactions were started by adding 2 μl KIVD (final concentration: for KIV, 20 nM wt KIVD, 200 nM F381L/V461A KIVD; for KHV, 50 nM both), and the consumption of NADPH was monitored at 340 nm (extinction coefficient, 6.22 mM^−1 cm^−1). Kinetic parameters (kcat and Km) were determined by fitting initial velocity data to the Michaelis-Menten equation using Origin.

[5] = biological target: F381L/V461A KIVD (Lactococcus lactis, UniProt A0A0B8QZ66, form not given/V461A); assay: as above; format: biochemical; details: for kcat: substrate of V461A/F381L KIVD, 30° C., pH 6.8
Excerpt: as §1, §3

[6] = biological target: T1, G462D LeuA (Escherichia coli, UniProt P09151, G462D); assay: measurement of LeuA activity (DTNB); format: biochemical, E. coli; details: for kcat: substrate of G462D LeuA, 30° C., pH 8.0
T1 construct: His tag (pQE9 vector, Ni-NTA purified) (N); TEV protease site (ENLYFQG, encoded by the forward primer) (N); made in house; host or cells: E. coli BL21(DE3) harboring pREP4
Excerpt: as §1, §2

[7] = biological target: T2, G462D/S139G LeuA (Escherichia coli, UniProt P09151, G462D/S139G); assay: measurement of LeuA activity (DTNB); format: biochemical, E. coli
T2 construct: His tag (pQE9 vector, Ni-NTA purified) (N); TEV protease site (ENLYFQG, encoded by the forward primer) (N); made in house; host or cells: E. coli BL21(DE3) harboring pREP4
Excerpt: as §1, §2

[8] = substrate: CC[C@H](C)CC(=O)C(=O)O; assay: coupled enzymatic assay of KIVD decarboxylation activity; format: biochemical, Lactococcus lactis; details: other: substrate of Wild type KIVD, 30° C., pH 6.8
Excerpt: as §1, §3

[9] = substrate: CC(C)C(=O)C(=O)O; assay: as above; format: biochemical, Lactococcus lactis; details: other: substrate of Wild type KIVD, 30° C., pH 6.8
Excerpt: as §1, §3

[10] = other: substrate of G462D/S139G LeuA

T1 sequence (P09151 whole entry G462D): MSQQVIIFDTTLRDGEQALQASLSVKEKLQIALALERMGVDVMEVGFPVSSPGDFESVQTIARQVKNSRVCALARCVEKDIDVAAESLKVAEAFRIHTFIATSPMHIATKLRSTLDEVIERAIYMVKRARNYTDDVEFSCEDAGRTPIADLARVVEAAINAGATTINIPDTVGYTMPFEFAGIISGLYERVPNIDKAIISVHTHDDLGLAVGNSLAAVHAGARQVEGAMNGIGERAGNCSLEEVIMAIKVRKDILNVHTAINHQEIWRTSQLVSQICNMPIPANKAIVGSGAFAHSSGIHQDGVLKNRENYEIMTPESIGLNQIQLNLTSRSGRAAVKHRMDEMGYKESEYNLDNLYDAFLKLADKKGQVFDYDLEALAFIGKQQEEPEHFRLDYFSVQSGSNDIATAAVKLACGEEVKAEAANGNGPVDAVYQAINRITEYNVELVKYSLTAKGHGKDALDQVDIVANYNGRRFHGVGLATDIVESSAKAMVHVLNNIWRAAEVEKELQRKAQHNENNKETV
T2 sequence (P09151 whole entry S139G/G462D): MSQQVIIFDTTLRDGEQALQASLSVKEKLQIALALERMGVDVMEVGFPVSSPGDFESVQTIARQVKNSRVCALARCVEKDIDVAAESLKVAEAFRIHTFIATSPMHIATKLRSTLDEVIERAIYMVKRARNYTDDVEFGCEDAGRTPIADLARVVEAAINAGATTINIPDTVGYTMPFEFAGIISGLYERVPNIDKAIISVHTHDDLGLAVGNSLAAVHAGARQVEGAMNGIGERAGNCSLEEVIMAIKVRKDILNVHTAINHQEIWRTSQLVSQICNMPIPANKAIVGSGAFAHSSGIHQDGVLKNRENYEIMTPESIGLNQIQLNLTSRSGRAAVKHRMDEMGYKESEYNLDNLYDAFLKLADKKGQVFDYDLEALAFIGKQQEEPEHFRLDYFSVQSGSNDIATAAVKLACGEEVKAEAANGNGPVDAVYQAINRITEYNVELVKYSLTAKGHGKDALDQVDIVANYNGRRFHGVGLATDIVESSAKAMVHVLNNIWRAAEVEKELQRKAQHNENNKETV

CCCCCO [1-Pentanol]
water solubility [1]: 23 mg/mL (≈ 261 mM)

G462D LeuA (Escherichia coli K-12; G462D)
Km ([2]; other: substrate of G462D LeuA): 55 µM
kcat ([2]; other: substrate of G462D LeuA): 0.018 ± 0.001 s⁻¹
kcat/Km ([2]; other: substrate of G462D LeuA): 330 M⁻¹ s⁻¹
Km ([3]; other: substrate of G462D LeuA): 182 µM
kcat ([3]; other: substrate of G462D LeuA): 6.0 ± 0.3 s⁻¹
kcat/Km ([3]; other: substrate of G462D LeuA): 33000 M⁻¹ s⁻¹

CC[C@H](C)CC(=O)C(=O)O [(S)-2-keto-4-methylhexanoate]
kcat [4]: 10.8 s⁻¹
specificity constant kcat/Km relative to that towards 2-ketoisovalerate ([4]; wild type KIVD): 4 fold
specificity constant kcat/Km relative to that towards 2-ketoisovalerate ([5]; F381L/V461A KIVD): 40 fold
kcat [5]: 3.0 ± 0.1 s⁻¹
kcat ([5]; listed as 2-keto-4-methylhexanoate): 3.0 s⁻¹

CCCCCCCO [1-heptanol]
water solubility [1]: 1.2 mg/mL (≈ 10.3 mM)

CC[C@H](C)C(=O)C(=O)O [(S)-2-keto-3-methylvalerate]
kcat, fold less than that for 2-ketoisovalerate ([6]; G462D LeuA): 333 fold
kcat [6]: 0.018 s⁻¹
increase of kcat by the S139G mutation ([7]; G462D/S139G versus G462D LeuA): 7 fold
kcat ([7]; substrate of G462D/S139G LeuA, 30° C., pH 8.0): 0.12 s⁻¹

G462D/S139G LeuA (Escherichia coli K-12; G462D/S139G)
Km [2, 10]: 144 ± 13 µM
kcat [2, 10]: 0.12 ± 0.02 s⁻¹
kcat/Km [2, 10]: 830 M⁻¹ s⁻¹
Km [3, 10]: 104 ± 5 µM
kcat [3, 10]: 2.1 ± 0.1 s⁻¹
kcat/Km [3, 10]: 20000 M⁻¹ s⁻¹

CC(C)C(=O)C(=O)O [2-Ketoisovalerate]
kcat [4]: 38.3 s⁻¹
kcat [5]: 2.7 ± 0.6 s⁻¹
kcat ([5]; listed as 2-ketoisovalerate): 2.7 s⁻¹
kcat [6]: 6.0 s⁻¹

B1: wild type KIVD (Lactococcus lactis subsp. lactis) (protein)
chain: MYTVGDYLLDRLHELGIEEIFGVPGDYNLQFLDQIISRKDMKWVGNANELNASYMADGYARTKKAAAFLTTFGVGELSAVNGLAGSYAENLPVVEIVGSPTSKVQNEGKFVHHTLADGDFKHFMKMHEPVTAARTLLTAENATVEIDRVLSALLKERKPVYINLPVDVAAAKAEKPSLPLKKENSTSNTSDQEILNKIQESLKNAKKPIVITGHEIISFGLEKTVSQFISKTKLPITTLNFGKSSVDEALPSFLGIYNGKLSEPNLKEFVESADFILMLGVKLTDSSTGAFTHHLNENKMISLNIDEGKIFNESIQNFDFESLISSLLDLSEIEYKGKYIDKKQEDFVPSNALLSQDRLWQAVENLTQSNETIVAEQGTSFFGASSIFLKPKSHFIGQPLWGSIGYTFPAALGSQIADKESRHLLFIGDGSLQLTVQELGLAIREKINPICFIINNDGYTVEREIHGPNQSYNDIPMWNYSKLPESFGATEERVVSKIVRTENEFVSVMKEAQADPNRMYWIELILAKEDAPKVLKKMGKLFAEQNKS
Km [8]: 140 µM
kcat [8]: 10.8 ± 0.3 s⁻¹
kcat/Km [8]: 77000 M⁻¹ s⁻¹
Km [9]: 2200 µM
kcat [9]: 38.3 ± 9.8 s⁻¹
kcat/Km [9]: 17000 M⁻¹ s⁻¹

Source: US8298798B2, “Production of C5-C8 alcohols using evolved enzymes and metabolically engineered microorganisms” (The Regents of the University of California, priority 2008, dated 2012)
